This passage reports self-cleavage results from the RNAGym collection of RNA variant scans (doi:10.7554/elife.80360).

The labels stand for the following.
B1: HDV Ribozyme (parent)
chain: GGCCGGCAUGGUCCCAGCCUCCUCGCUGGCGCCGGCUGGGCAACAUUCCGAGGGGACCGUCCCCUCGGUAAUGGCGAAUGGGACCCA

This data set covers variants of B1. As to the kind of experiment: self-cleavage, relative activity (ratio to wild type); higher = more cleavage; co-transcriptional.
Consider GGCCGUCAUGGUCCCAGCCUCCUCGCUGGCGCCGGCUGGGCAAGAUUCCGAGGGGACCGUCCCCUCGGUAAUGGCGAAUGGGACCCA [G6U C44G], for which the self-cleavage was 0.268.

On to GGCCGUCAUGGUCCCAGCCUCCUCGCUGGCGCCGGCUGGGCAAAAUUCCGAGGGGACCGUCCCCUCGGUAAUGGCGAAUGGGACCCA [G6U C44A], for which the self-cleavage amounted to 0.213.

With GGCCGUCAUGGUCCCAGCCUCCUCGCUGGCGCGGGCUGGGCAACAUUCCGAGGGGACCGUCCCCUCGGUAAUGGCGAAUGGGACCCA [G6U C33G], the self-cleavage is 0.196.

As for GGCCGUCAUGGUCCCAGCCUCCUCGCUGGCGCAGGCUGGGCAACAUUCCGAGGGGACCGUCCCCUCGGUAAUGGCGAAUGGGACCCA [G6U C33A], the self-cleavage was found to be 0.0332.

With GGCCGUCAUGGUCCCAGCCUCCUCGCUGGCGCUGGCUGGGCAACAUUCCGAGGGGACCGUCCCCUCGGUAAUGGCGAAUGGGACCCA [G6U C33U], the self-cleavage was determined as 0.217.

Consider GGCCGUCAUGGUCCCAGCCUCCUCGCUGGCGCCGGCUGGGCAACAUUCCGAGGGGAGCGUCCCCUCGGUAAUGGCGAAUGGGACCCA [G6U C57G], for which the self-cleavage was determined as 0.491.

For GGCCGUCAUGGUCCCAGCCUCCUCGCUGGCGCCGGCUGGGCAACAUUCCGAGGGGAUCGUCCCCUCGGUAAUGGCGAAUGGGACCCA [G6U C57U], the self-cleavage is 0.573.

As to GGCCGUCAUGGUCCCAGCUUCCUCGCUGGCGCCGGCUGGGCAACAUUCCGAGGGGACCGUCCCCUCGGUAAUGGCGAAUGGGACCCA [G6U C19U], the self-cleavage is 0.0489.

With GGCCGUCAUGGUCCCAGCCUCCUCGCUGGCGCCGGCUGGGCAACAUUCCGAGGGGACCGUCCCCUCGGUAAUGGAGAAUGGGACCCA [G6U C75A], the self-cleavage came out at 0.0875.

GGCCGUCAUGGUCCCAGCCUCCUCGCUGGCGCCGGCUGGGCAACAUUCCGAGGGGACCGUCCCAUCGGUAAUGGCGAAUGGGACCCA [G6U C64A]: the self-cleavage amounted to 0.415.

For GGCCGUCAUGGUCCCAGCCUCCUCGCUGGCGCCGGCUGGGCAACAUUCCGAGGGGACCGUCCCUUCGGUAAUGGCGAAUGGGACCCA [G6U C64U], the self-cleavage came out at 0.723.

As for GGCCGUCAUGGUCCCAGCCUCCUCGCUGGCGCCGGCUGGGCAACAUUCCGAGGGGACCGUCUCCUCGGUAAUGGCGAAUGGGACCCA [G6U C62U], the self-cleavage was found to be 1.

On to GGCCGUCAUGGUCCCAGCCUCCUCGCUGGCGACGGCUGGGCAACAUUCCGAGGGGACCGUCCCCUCGGUAAUGGCGAAUGGGACCCA [G6U C32A], for which the self-cleavage is 1.08.

Regarding GGCCGUCAUGGUCCCAGCCUCCUCGCUGGCGUCGGCUGGGCAACAUUCCGAGGGGACCGUCCCCUCGGUAAUGGCGAAUGGGACCCA [G6U C32U], the self-cleavage was 0.787.

As to GGCCGUCAUGGUCCCAGCCUCCUCGCUGGCGCCGGCUGGGCAACAUUCCGAGGGGACCGUCCGCUCGGUAAUGGCGAAUGGGACCCA [G6U C63G], the self-cleavage worked out at 0.268.

In the case of GGCCGUCAUGGUCCCAGCCUCCUCGCUGGAGCCGGCUGGGCAACAUUCCGAGGGGACCGUCCCCUCGGUAAUGGCGAAUGGGACCCA [G6U C30A], the self-cleavage stood at 0.0791.

As for GGCCGUCAUGGUCCCAGCCUCCUCGCUGGCGCCGGCUGGGCAACAUUCCGAGGGGACCGUACCCUCGGUAAUGGCGAAUGGGACCCA [G6U C61A], the self-cleavage came out at 0.717.

As for GGCCGUCAUGGUCCCAGCCUCCUUGCUGGCGCCGGCUGGGCAACAUUCCGAGGGGACCGUCCCCUCGGUAAUGGCGAAUGGGACCCA [G6U C24U], the self-cleavage is 0.133.

For the variant GGCCGUCAUGGUCCCAGCCUCCUAGCUGGCGCCGGCUGGGCAACAUUCCGAGGGGACCGUCCCCUCGGUAAUGGCGAAUGGGACCCA [G6U C24A], the self-cleavage came to 0.0378.

Consider GGCCGUCAUGGUCCCAGCCUCUUCGCUGGCGCCGGCUGGGCAACAUUCCGAGGGGACCGUCCCCUCGGUAAUGGCGAAUGGGACCCA [G6U C22U], for which the self-cleavage stood at 0.136.

For the variant GGCCGUCAUGGUCCCAGCCUCGUCGCUGGCGCCGGCUGGGCAACAUUCCGAGGGGACCGUCCCCUCGGUAAUGGCGAAUGGGACCCA [G6U C22G], the self-cleavage stood at 0.0489.

On to GGCCGUCAUGGUCCCAGCCUCCUCGCUGGCGCCGGUUGGGCAACAUUCCGAGGGGACCGUCCCCUCGGUAAUGGCGAAUGGGACCCA [G6U C36U], for which the self-cleavage was 0.227.

In the case of GGCCGUCAUGGUCCCAGCCUCCUCGCUGGCGCCGGGUGGGCAACAUUCCGAGGGGACCGUCCCCUCGGUAAUGGCGAAUGGGACCCA [G6U C36G], the self-cleavage was 0.

GGCCGUCAUGGUCCCAGUCUCCUCGCUGGCGCCGGCUGGGCAACAUUCCGAGGGGACCGUCCCCUCGGUAAUGGCGAAUGGGACCCA [G6U C18U]: the self-cleavage worked out at 0.0369.

With GGCCGUCAUGGUCCCAGCCUCCUCGAUGGCGCCGGCUGGGCAACAUUCCGAGGGGACCGUCCCCUCGGUAAUGGCGAAUGGGACCCA [G6U C26A], the self-cleavage worked out at 0.397.

On to GGCCGUCAUGGUCCCAGCCUCCUCGCUGGCGCCGGCUGGGCAACAUUCCGAGGGGACCGUCCCCUCGGUAAUGGCGAAUGGGAGCCA [G6U C84G], for which the self-cleavage was 0.0923.

For the variant GGCCGUCAUGGUCCCAGCCUUCUCGCUGGCGCCGGCUGGGCAACAUUCCGAGGGGACCGUCCCCUCGGUAAUGGCGAAUGGGACCCA [G6U C21U], the self-cleavage is 0.122.

For GGCCGUCAUGGUCGCAGCCUCCUCGCUGGCGCCGGCUGGGCAACAUUCCGAGGGGACCGUCCCCUCGGUAAUGGCGAAUGGGACCCA [G6U C14G], the self-cleavage came to 0.166.

Regarding GGCCGUCAUGGUCUCAGCCUCCUCGCUGGCGCCGGCUGGGCAACAUUCCGAGGGGACCGUCCCCUCGGUAAUGGCGAAUGGGACCCA [G6U C14U], the self-cleavage came out at 0.682.

Take GGCCGUCAUGGUCACAGCCUCCUCGCUGGCGCCGGCUGGGCAACAUUCCGAGGGGACCGUCCCCUCGGUAAUGGCGAAUGGGACCCA [G6U C14A]: the self-cleavage turned out to be 0.0692.

Regarding GGCCGUCAUGGUCCUAGCCUCCUCGCUGGCGCCGGCUGGGCAACAUUCCGAGGGGACCGUCCCCUCGGUAAUGGCGAAUGGGACCCA [G6U C15U], the self-cleavage amounted to 0.646.

As to GGCCGUCAUGGUCCAAGCCUCCUCGCUGGCGCCGGCUGGGCAACAUUCCGAGGGGACCGUCCCCUCGGUAAUGGCGAAUGGGACCCA [G6U C15A], the self-cleavage amounted to 0.
